The source of these data is doi:10.1101/2023.10.26.564242, “KIF1C activates and extends dynein movement through the FHF cargo adaptor” (bioRxiv, 2023).

B1: GST-KIF1C stalk (residues 642-922) (domain or fragment, human, UniProt O43896 642-922, looked up)
chain: EMEKRLQDLENQYRKEKEEADLLLEQQRLYADSDSGDDSDKRSCEESWRLISSLREQLPPTTVQTIVKRCGLPSSGKRRAPRRVYQIPQRRRLQGKDPRWATMADLKMQAVKEICYEVALADFRHGRAEIEALAALKMRELCRTYGKPDGPGDAWRAVARDVWDTVGEEEGGGAGSGGGSEEGARGAEVEDLRAHIDKLTGILQEVKLQNSSKDRELQALRDRMLRMERVIPLAQDHEDENEEGGEVPWAPPEGSEAAEEAAPSDRMPSARPPSPPLSSWE
notes: also called KS; Ks; source: E. coli SoluBL21, purified (Ni-NTA, Superdex 200); not shown: GST, N-terminal, kept
B2: HOOK3 C-terminal fragment (residues 571-718) (domain or fragment, human, UniProt Q86VS8 571-718, looked up)
chain: DLEPRFNNSSLKIEELQEALRKKEEEMKQMEERYKKYLEKAKSVIRTLDPKQNQGAAPEIQALKNQLQERDRLFHSLEKEYEKTKSQREMEEKYIVSAWYNMGMTLHKKAAEDRLASTGSGQSFLARQRQATSSRRSYPGHVQPATAR
notes: The HOOK3 chain of the FHF cryo-EM construct, written alone for the rows of two; not shown: Strep II, N-terminal, cleaved
B3: HOOK3-SNAPf labelled with Alexa 647 (natural protein, human, UniProt Q86VS8 1-718, looked up)
chain: MFSVESLERAELCESLLTWIQTFNVDAPCQTVEDLTNGVVMAQVLQKIDPAYFDENWLNRIKTEVGDNWRLKISNLKKILKGILDYNHEILGQQINDFTLPDVNLIGEHSDAAELGRMLQLILGCAVNCEQKQEYIQAIMMMEESVQHVVMTAIQELMSKESPVSAGNDAYVDLDRQLKKTTEELNEALSAKEEIAQRCHELDMQVAALQEEKSSLLAENQVLMERLNQSDSIEDPNSPAGRRHLQLQTQLEQLQEETFRLEAAKDDYRIRCEELEKEISELRQQNDELTTLADEAQSLKDEIDVLRHSSDKVSKLEGQVESYKKKLEDLGDLRRQVKLLEEKNTMYMQNTVSLEEELRKANAARSQLETYKRQVVELQNRLSEESKKADKLDFEYKRLKEKVDSLQKEKDRLRTERDSLKETIEELRCVQAQEGQLTTQGLMPLGSQESSDSLAAEIVTPEIREKLIRLQHENKMLKLNQEGSDNEKIALLQSLLDDANLRKNELETENRLVNQRLLEVQSQVEELQKSLQDQGSKAEDSVLLKKKLEEHLEKLHEANNELQKKRAIIEDLEPRFNNSSLKIEELQEALRKKEEEMKQMEERYKKYLEKAKSVIRTLDPKQNQGAAPEIQALKNQLQERDRLFHSLEKEYEKTKSQREMEEKYIVSAWYNMGMTLHKKAAEDRLASTGSGQSFLARQRQATSSRRSYPGHVQPATAR
modifications: benzylguanine conjugated fluorophore (Alexa 647) on the SNAPf domain
notes: HOOK3, amplified from a human cDNA library, full length; pFastBacM13-8xHis-ZZ-LTLT-HOOK3-SNAPf; An untagged full-length HOOK3 from the same backbone was used in assays with Lis1; source: Sf9 (baculovirus), purified (Ni-NTA, IgG Sepharose, TEV cleavage); not shown: 8xHis, N-terminal, cleaved; ZZ, N-terminal, cleaved; SNAPf, C-terminal, kept
B4: GST-KIF1C stalk 674-922 (domain or fragment, human, UniProt O43896 674-922, looked up)
chain: SDSGDDSDKRSCEESWRLISSLREQLPPTTVQTIVKRCGLPSSGKRRAPRRVYQIPQRRRLQGKDPRWATMADLKMQAVKEICYEVALADFRHGRAEIEALAALKMRELCRTYGKPDGPGDAWRAVARDVWDTVGEEEGGGAGSGGGSEEGARGAEVEDLRAHIDKLTGILQEVKLQNSSKDRELQALRDRMLRMERVIPLAQDHEDENEEGGEVPWAPPEGSEAAEEAAPSDRMPSARPPSPPLSSWE
notes: also called KIF1CS2; source: E. coli SoluBL21, purified (Ni-NTA, Superdex 200); not shown: GST, N-terminal, kept

Data set [1] deals with B3. The experiment in a line: cell-based or functional assay.
Data set [2] concerns the target T1, full-length FTS-HOOK3-FHIP1B (FHF) complex (human, UniProt Q9H8T0 1-292; Q86VS8 1-718; Q8N612 1-972). The experiment in a line: cell-based or functional assay.
Data set [3] addresses T1, full-length FTS-HOOK3-FHIP1B (FHF) …. In words: mass photometry; full-length FHF with KIF1C stalk, diluted to 100 nM in GF150; Refeyn TwoMP. The following applies: both partners purified.
Data set [4] deals with the molecule itself. The experiment in a line: cryo-EM structure; FHF with full-length FTS and FHIP1B and HOOK3 571-718, 0.9 mg/ml with 0.1% CHAPSO or 0.005% Igepal; 3.2 Å reconstruction.
The data set “GST-KIF1C stalk 674-922” deals with B4. In words: cross-linking; cross-linking mass spectrometry with 10 mM EDC or 5 mM DSSO, room temperature, 60 minutes; full-length FHF or FH^571-718F bound to KIF1C stalk 674-922. The following applies: both partners purified.
The next data set addresses T2, full-length KIF1C-GFP (human, UniProt O43896 1-1103).
T2 construct: KIF1C, human, full length; also called KFL
T2 sequence (looked up): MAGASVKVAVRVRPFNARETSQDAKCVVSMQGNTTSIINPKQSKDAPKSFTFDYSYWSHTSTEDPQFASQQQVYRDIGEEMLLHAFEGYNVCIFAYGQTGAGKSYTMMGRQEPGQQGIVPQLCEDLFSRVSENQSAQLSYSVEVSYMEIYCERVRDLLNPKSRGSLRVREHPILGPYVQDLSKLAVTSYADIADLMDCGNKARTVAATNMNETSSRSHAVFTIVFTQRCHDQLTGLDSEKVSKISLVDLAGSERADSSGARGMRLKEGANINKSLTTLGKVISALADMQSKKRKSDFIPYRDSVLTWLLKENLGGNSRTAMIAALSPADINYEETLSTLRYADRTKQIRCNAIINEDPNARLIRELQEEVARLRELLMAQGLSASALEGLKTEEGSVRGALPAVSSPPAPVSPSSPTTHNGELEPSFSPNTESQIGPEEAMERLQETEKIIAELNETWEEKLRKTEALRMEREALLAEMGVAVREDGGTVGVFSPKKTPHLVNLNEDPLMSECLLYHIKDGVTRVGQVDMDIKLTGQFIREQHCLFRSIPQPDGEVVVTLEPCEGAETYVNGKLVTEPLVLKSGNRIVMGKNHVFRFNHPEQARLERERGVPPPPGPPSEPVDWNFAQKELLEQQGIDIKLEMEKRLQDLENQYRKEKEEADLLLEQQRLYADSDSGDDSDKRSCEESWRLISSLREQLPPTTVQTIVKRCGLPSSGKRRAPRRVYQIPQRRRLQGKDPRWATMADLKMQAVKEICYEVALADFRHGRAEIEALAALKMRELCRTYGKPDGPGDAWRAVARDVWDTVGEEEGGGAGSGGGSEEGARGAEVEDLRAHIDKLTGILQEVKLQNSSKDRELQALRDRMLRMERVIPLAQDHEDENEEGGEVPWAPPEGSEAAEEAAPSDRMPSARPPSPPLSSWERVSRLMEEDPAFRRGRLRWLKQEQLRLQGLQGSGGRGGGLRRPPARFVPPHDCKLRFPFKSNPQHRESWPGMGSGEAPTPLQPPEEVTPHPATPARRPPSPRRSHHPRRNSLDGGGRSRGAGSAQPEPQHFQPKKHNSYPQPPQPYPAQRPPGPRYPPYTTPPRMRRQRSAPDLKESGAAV
The experiment in a line: single-molecule TIRF co-movement on microtubules; TMR-dynein, dynactin, HOOK3-Alexa 647 and KIF1C-GFP mixed (200 nM dynein, 200 nM dynactin, 1600 nM adaptor, 180 nM KIF1C-GFP, ~75 mM KCl), diluted and imaged on taxol microtubules at 25 °C; controls with single components omitted. The following applies: both partners purified.

Data set [5] addresses T3, HOOK3 residues 451-718 (as in FH^451-718F) (human, UniProt Q86VS8 451-718).
T3 construct: The HOOK3 chain of m12, written alone for the row of two; also called HOOK3 C-terminal fragment; not shown: Strep II, N-terminal, cleaved
T3 sequence (looked up): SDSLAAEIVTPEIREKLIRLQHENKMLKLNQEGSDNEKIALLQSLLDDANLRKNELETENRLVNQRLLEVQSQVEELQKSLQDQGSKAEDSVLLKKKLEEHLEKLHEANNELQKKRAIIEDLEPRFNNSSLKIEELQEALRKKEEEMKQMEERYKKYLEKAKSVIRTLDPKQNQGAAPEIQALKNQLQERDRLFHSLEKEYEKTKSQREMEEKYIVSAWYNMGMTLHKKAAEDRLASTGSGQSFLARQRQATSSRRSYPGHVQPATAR
In words: cryo-EM structure; FH^451-718F bound to GST-KIF1C stalk 674-922; low resolution at the KIF1C density. The following applies: both partners purified.

For data set [6], the target named is T4, HOOK3, full length (as in full-length FHF) (human, UniProt Q86VS8 1-718).
T4 construct: HOOK3, human, full length; gene codon optimised for Sf9; The HOOK3 chain of full-length FHF, written alone for the rows of two; not shown: Strep II, N-terminal, cleaved
T4 sequence (looked up): B3 chain
In words: cross-linking; cross-linking mass spectrometry with 10 mM EDC or 5 mM DSSO, room temperature, 60 minutes; full-length FHF or FH^571-718F bound to KIF1C stalk 674-922. The settings on record: both partners purified.

T1 sequence (Q9H8T0 whole entry, chain 1 of 2): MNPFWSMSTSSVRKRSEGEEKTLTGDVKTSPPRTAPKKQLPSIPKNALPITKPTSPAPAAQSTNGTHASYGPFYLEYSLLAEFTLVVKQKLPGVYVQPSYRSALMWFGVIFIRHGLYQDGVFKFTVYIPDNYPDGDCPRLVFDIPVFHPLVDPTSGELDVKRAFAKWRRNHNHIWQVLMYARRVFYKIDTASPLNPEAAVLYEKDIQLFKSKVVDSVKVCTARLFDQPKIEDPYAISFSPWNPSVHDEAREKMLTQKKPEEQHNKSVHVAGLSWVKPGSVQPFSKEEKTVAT
T1 sequence (Q8N612 whole entry, chain 3 of 2): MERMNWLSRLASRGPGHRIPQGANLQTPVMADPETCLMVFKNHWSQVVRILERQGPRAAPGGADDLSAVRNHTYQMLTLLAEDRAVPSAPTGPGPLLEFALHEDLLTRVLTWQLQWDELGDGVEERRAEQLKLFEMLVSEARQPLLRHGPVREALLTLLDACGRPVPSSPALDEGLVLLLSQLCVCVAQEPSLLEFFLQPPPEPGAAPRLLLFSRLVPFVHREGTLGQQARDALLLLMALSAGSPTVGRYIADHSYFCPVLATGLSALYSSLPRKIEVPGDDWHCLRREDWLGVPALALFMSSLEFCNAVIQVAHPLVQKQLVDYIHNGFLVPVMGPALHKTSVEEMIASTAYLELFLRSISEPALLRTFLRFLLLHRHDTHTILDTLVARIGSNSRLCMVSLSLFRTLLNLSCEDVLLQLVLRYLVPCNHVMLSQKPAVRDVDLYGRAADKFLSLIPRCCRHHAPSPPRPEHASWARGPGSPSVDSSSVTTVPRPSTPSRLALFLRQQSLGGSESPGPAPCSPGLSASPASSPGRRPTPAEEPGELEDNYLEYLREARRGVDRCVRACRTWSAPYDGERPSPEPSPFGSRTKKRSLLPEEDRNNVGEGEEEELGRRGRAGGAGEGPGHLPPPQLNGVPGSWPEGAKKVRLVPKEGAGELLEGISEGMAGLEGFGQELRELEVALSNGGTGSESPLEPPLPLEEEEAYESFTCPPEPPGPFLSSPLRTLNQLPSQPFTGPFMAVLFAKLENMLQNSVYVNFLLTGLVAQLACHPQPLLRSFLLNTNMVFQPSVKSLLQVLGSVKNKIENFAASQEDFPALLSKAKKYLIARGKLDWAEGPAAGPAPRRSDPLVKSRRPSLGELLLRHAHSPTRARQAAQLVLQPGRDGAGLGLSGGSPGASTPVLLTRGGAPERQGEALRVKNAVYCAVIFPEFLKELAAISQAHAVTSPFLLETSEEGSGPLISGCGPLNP

In the case of B1, in data set [1], the “dynein microtubule recruitment (TMR-dynein landing rate, TIRF) with dynactin, HOOK3 and Lis1, with against without the KIF1C stalk construct (GST-KIF1C642-922-GFP in this assay)” value is 2.6 fold. The “processive events of dynein-dynactin-FHF (TIRF), with KIF1C stalk against a DDFHF control” value in data set [2] was about 3.7 fold. In addition, the “stoichiometry N” value in data set [3] was 1 dimeric KIF1C stalk per FHF.

As to B2, the binding result (in data set [4]; with GST-KIF1C stalk 674-922) was “binds” in each case.

As for B3, the binding result with full-length KIF1C-GFP was “binds”.

Consider B4, for which the binding result in data set [5] and in data set [6] was “binds” each time.
